According to FireProtDB (doi:10.1016/0168-1656(93)90129-b):

B1: Ribonuclease HI, P0A7Y4 (parent)
chain: MLKQVEIFTDGSCLGNPGPGGYGAILRYRGREKTFSAGYTRTTNNRMELMAAIVALEALKEHCEVILSTDSQYVRQGITQWIHNWKKRGWKTADKKPVKNVDLWQRLDAALGQHQIKWEWVKGHAGHPENERCDELARAAAMNPTLEDTGYQVEV

Variants of: B1
Conditions: Escherichia coli (strain K12), CD, reversible: yes, structure 2RN2, whole UniProt chain shown; for Tm / change of melting temperature, mutant - wild type (higher = more stable): Thermal; for ddG of mutation (higher = less stable) / denaturant midpoint (higher = more stable) / unfolding free energy: 25 °C, GdnHCl

| Variant | Tm (pH 3, glycine-HCl 10 mM) | change of melting temperature, mutant - wild type (higher = more stable) (pH 3, glycine-HCl 10 mM) | ddG of mutation (higher = less stable) (pH 5.5, Sodium acetate 20 mM) | denaturant midpoint (higher = more stable) (pH 5.5, Sodium acetate 20 mM) | unfolding free energy (pH 5.5, Sodium acetate 20 mM) | Tm (pH 5.5, Sodium acetate 20 mM) | change of melting temperature, mutant - wild type (higher = more stable) (pH 5.5, Sodium acetate 20 mM) | Tm (pH 7.8, Sodium phosphate 20 mM) | change of melting temperature, mutant - wild type (higher = more stable) (pH 7.8, Sodium phosphate 20 mM) | ddG of mutation (higher = less stable) (pH 8.2, Tris-HCl 20 mM) | denaturant midpoint (higher = more stable) (pH 8.2, Tris-HCl 20 mM) | unfolding free energy (pH 8.2, Tris-HCl 20 mM) |
| --- | --- | --- | --- | --- | --- | --- | --- | --- | --- | --- | --- | --- |
| MLKQVEIFTDGSCLGNPGPGGYGAILRYRGREKTFSAGYTRTTNNRMELMAAIVALEALKEHCEVILSTDSQYVRQGITQWIANWKKRGWKTADKKPVKNVDLWQRLDAALGQHQIKWEWVKGHAGHPENERCDELARAAAMNPTLEDTGYQVEV [H83A] | 51.5 °C | 2.1 °C | -0.22 kcal/mol | 1.83 M | 9.43 kcal/mol | 52.8 °C | 0.1 °C | 50 °C | -0.2 °C | 0.09 kcal/mol | 1.63 M | 8.4 kcal/mol |
| MLKQVEIFTDGSCLGNPGPGGYGAILRYRGREKTFSAGYTRTTNNRMELMAAIVALEALKEACEVILSTDSQYVRQGITQWIANWKKRGWKTADKKPVKNVDLWQRLDAALGQHQIKWEWVKGHAGHPENERCDELARAAAMNPTLEDTGYQVEV [H62A H83A] |  |  |  |  |  |  |  | 51.5 °C | 1.3 °C |  |  |  |
| MLKQVEIFTDGSCLGNPGPGGYGAILRYRGREKTFSAGYTRTTNNRMELMAAIVALEALKEACEVILSTDSQYVRQGITQWIHNWKKRGWKTADKKPVKNVDLWQRLDAALGQHQIKWEWVKGHAGHPENERCDELARAAAMNPTLEDTGYQVEV [H62A] | 50.7 °C | 1.3 °C | -0.36 kcal/mol | 1.86 M | 9.57 kcal/mol |  |  | 51.2 °C | 1 °C | -0.58 kcal/mol | 1.76 M | 9.07 kcal/mol |
| MLKQVEIFTDGSCLGNPGPGGYGAILRYRGREKTFSAGYTRTTNNRMELMAAIVALEALKEHCEVILSTDSQYVRQGITQWIHNWKKRGWKTADKKPVKNVDLWQRLDAALGQHQIKWEWVKGAAGHPENERCDELARAAAMNPTLEDTGYQVEV [H124A] | 51.1 °C | 1.7 °C | -0.17 kcal/mol | 1.82 M | 9.38 kcal/mol | 52.7 °C | 0 °C | 50.3 °C | 0.1 °C | -0.05 kcal/mol | 1.66 M | 8.54 kcal/mol |
| MLKQVEIFTDGSCLGNPGPGGYGAILRYRGREKTFSAGYTRTTNNRMELMAAIVALEALKEACEVILSTDSQYVRQGITQWIANWKKRGWKTADKKPVKNVDLWQRLDAALGQHQIKWEWVKGAAGAPENERCDELARAAAMNPTLEDTGYQVEV [H62A H83A H124A H127A] | 54.9 °C | 5.5 °C |  |  |  |  |  | 51.7 °C | 1.5 °C |  |  |  |
| MLKQVEIFTDGSCLGNPGPGGYGAILRYRGREKTFSAGYTRTTNNRMELMAAIVALEALKEHCEVILSTDSQYVRQGITQWIHNWKKRGWKTADKKPVKNVDLWQRLDAALGQHQIKWEWVKGAAGAPENERCDELARAAAMNPTLEDTGYQVEV [H124A H127A] | 53 °C | 3.6 °C |  |  |  | 52.1 °C | -0.6 °C | 50.1 °C | -0.1 °C |  |  |  |
| MLKQVEIFTDGSCLGNPGPGGYGAILRYRGREKTFSAGYTRTTNNRMELMAAIVALEALKEHCEVILSTDSQYVRQGITQWIHNWKKRGWKTADKKPVKNVDLWQRLDAALGQHQIKWEWVKGHAGAPENERCDELARAAAMNPTLEDTGYQVEV [H127A] | 50.3 °C | 0.9 °C | 0.24 kcal/mol | 1.74 M | 8.97 kcal/mol |  |  |  |  | 0.31 kcal/mol | 1.59 M | 8.18 kcal/mol |
| MLKQVEIFTDGSCLGNPGPGGYGAILRYRGREKTFSAGYTRTTNNRMELMAAIVALEALKEHCEVILSTDSQYVRQGITQWIHNWKKRGWKTADKKPVKNVDLWQRLDAALGQAQIKWEWVKGHAGHPENERCDELARAAAMNPTLEDTGYQVEV [H114A] |  |  |  |  |  |  |  | 42.5 °C | -7.7 °C |  |  |  |
